Measurements reported in patent US20180086837A1 (Ablynx, published 2018).

Columns and labels:
[1] = target: T1, hCXCR4-V196E (human, UniProt P61073 1-352); experiment: flow cytometry, transfected HEK293T cells, 10 nM, normalised to 12G5
T1 construct: whole, on cells

[2] = target: T2, cynomolgus CXCR4 (cynomolgus, UniProt Q28474 1-352); experiment: as above
T2 construct: whole, on cells; also called cyno CXCR4

[3] = target: T1, hCXCR4-V196E; experiment: flow cytometry, transfected HEK293T cells, 100 nM, normalised to 12G5
[4] = target: T2, cynomolgus CXCR4; experiment: as above
[5] = target: T3, human CXCR4 (human, UniProt P61073 1-352); experiment: competition FACS on Hek-CXCR4 cells; competitor: 30 nM biotinylated SDF-1
T3 construct: also called hCXCR4
T3 sequence (P61073 whole entry): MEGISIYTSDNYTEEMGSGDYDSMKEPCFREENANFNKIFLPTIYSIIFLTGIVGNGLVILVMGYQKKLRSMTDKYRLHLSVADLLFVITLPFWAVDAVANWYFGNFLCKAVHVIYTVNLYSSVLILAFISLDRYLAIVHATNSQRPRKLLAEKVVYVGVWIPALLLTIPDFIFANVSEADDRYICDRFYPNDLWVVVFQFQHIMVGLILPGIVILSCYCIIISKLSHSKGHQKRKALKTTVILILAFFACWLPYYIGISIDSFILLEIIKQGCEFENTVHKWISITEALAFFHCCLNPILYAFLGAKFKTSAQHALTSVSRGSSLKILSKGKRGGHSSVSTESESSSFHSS

T1 sequence (P61073 whole entry V196E): as the sequence (P61073 whole entry) above, with V196E counted along it
T2 sequence (Q28474 whole entry): as the sequence (P61073 whole entry) above, with M24I, N35H, K38R, R146K, N176S counted along it

B1: Nanobody 10C3 (VHH)
VHH: EVQLVESGGGLVQPGGSLRLSCAASGTIFSTSTMGWYSQAPGKQRELVADITFLGSAKYADSVKGRFTISRDKIKNTVYLQMNSLKPEDTAAYYCNARQSTFRGVHYNYWGQGTQVTVSS
notes: also called 10C03
- % binding relative to hCXCR4 [1]: 0.4%
- % binding relative to hCXCR4 [2]: 57.5%
- % binding relative to hCXCR4 [3]: 0.6%
- % binding relative to hCXCR4 [4]: 51.3%
- IC50 (read off the curve) [5]: ~30 nM
